The target in series [1] is T1, RBM10 RRM2 WT (UniProt P98175 300-384).
T1 sequence: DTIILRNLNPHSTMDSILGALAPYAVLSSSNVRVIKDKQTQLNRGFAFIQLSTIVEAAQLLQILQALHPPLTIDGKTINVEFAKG
The series can be described thus: ITC. In general terms: Isothermal titration calorimetry measures the heat released or taken up as one component is titrated into another.

Series [2] concerns the target T2, RBM10 RRM2 R332C (UniProt P98175 300-384, R332C).
T2 sequence: T1 sequence with R33C
Kind of series: ITC and NMR.

Changes are numbered by the printed parent chain.

Regarding UUGUCUGCUCCC (ssRNA) [NUMB exon 12-derived 12mer RNA], the binding result in series [1] is “binds”. Moreover, the binding signal in series [2] was > 20 fold reduced affinity vs WT.

Values taken from article doi:10.1101/2025.08.05.25330579.
